Laboratory results: the supplement of paper PMC11246515
± gives the standard deviation of the averaged measurements.

Test: total protein half-life in vivo (active degradation + dilution); higher = more stable protein
[1] = E. coli NCM3722 delta-clpP delta-lon delta-hslV, growth: N-lim chemostat, doubling time 6 h
[2] = E. coli NCM3722 delta-clpP, growth: N-lim chemostat, doubling time 6 h
[3] = E. coli NCM3722 delta-hslV, growth: N-lim chemostat, doubling time 6 h
[4] = E. coli NCM3722 delta-smpB, growth: N-lim chemostat, doubling time 6 h
[5] = wild type E. coli NCM3722, growth: C-lim chemostat, doubling time 3 h
[6] = wild type E. coli NCM3722, growth: C-lim chemostat, doubling time 6 h
[7] = wild type E. coli NCM3722, growth: C-lim chemostat, doubling time 12 h
[8] = wild type E. coli NCM3722, growth: N-lim chemostat, doubling time 6 h
[9] = wild type E. coli NCM3722, growth: N-lim chemostat, doubling time 12 h
[10] = wild type E. coli NCM3722, growth: P-lim chemostat, doubling time 6 h
[11] = wild type E. coli NCM3722, growth: P-lim chemostat, doubling time 12 h
[12] = E. coli NCM3722 delta-lon, growth: N-lim chemostat, doubling time 6 h

Row | Sequence | total protein half-life in vivo [1] | total protein half-life in vivo [2] | total protein half-life in vivo [3] | total protein half-life in vivo [4] | total protein half-life in vivo [5] | total protein half-life in vivo [6] | total protein half-life in vivo [7] | total protein half-life in vivo [8] | total protein half-life in vivo [9] | total protein half-life in vivo [10] | total protein half-life in vivo [11] | total protein half-life in vivo [12]
1 | MFILWYSASSTFGKDSDIVMGVRAQQKEKTRRSLVEAAFSQLSAERSFASLSLREVAREAGIAPTSFYRHFRDVDELGLTMVDESGLMLRQLMRQARQRIAKGGSVIRTSVSTFMEFIGNNPNAFRLLLRERSGTSAAFRAAVAREIQHFIAELADYLELENHMPRAFTEAQAEAMVTIVFSAGAEALDVGVEQRRQLEERLVLQLRMISKGAYYWYRREQEKTAIIPGNVKDE [P0ACU5] | 6.31 ± 0.35 h | 5.81 ± 0.25 h | 6.25 ± 0.1 h | 5.957 ± 0.021 h | 2.73 ± 0.18 h | 5.97 ± 0.75 h | 11.2 ± 2.1 h | 5.71 ± 0.12 h | 10.4 ± 1.6 h | 5.31 ± 0.57 h | 10.88 ± 0.052 h | –
2 | MFKEIFTRLIRHLPSRLVHRDPLPGAQQTVNTVVPPSLSAHCLKMAVMPEEELWKTFDTHPEGLNQAEVESAREQHGENKLPAQQPSPWWVHLWVCYRNPFNILLTILGAISYATEDLFAAGVIALMVAISTLLNFIQEARSTKAADALKAMVSNTATVLRVINDKGENGWLEIPIDQLVPGDIIKLAAGDMIPADLRILQARDLFVAQASLTGESLPVEKAATTRQPEHSNPLECDTLCFMGTTVVSGTAQAMVIATGANTWFGQLAGRVSEQESEPNAFQQGISRVSMLLIRFMLVMAPVVLLINGYTKGDWWEAALFALSVAVGLTPEMLPMIVTSTLARGAVKLSKQKVIVKHLDAIQNFGAMDILCTDKTGTLTQDKIVLENHTDISGKTSERVLHSAWLNSHYQTGLKNLLDTAVLEGTDEESARSLASRWQKIDEIPFDFERRRMSVVVAENTEHHQLVCKGALQEILNVCSQVRHNGEIVPLDDIMLRKIKRVTDTLNRQGLRVVAVATKYLPAREGDYQRADESDLILEGYIAFLDPPKETTAPALKALKASGITVKILTGDSELVAAKVCHEVGLDAGEVVIGSDIETLSDDELANLAQRTTLFARLTPMHKERIVTLLKREGHVVGFMGDGINDAPALRAADIGISVDGAVDIAREAADIILLEKSLMVLEEGVIEGRRTFANMLKYIKMTASSNFGNVFSVLVASAFLPFLPMLPLHLLIQNLLYDVSQVAIPFDNVDDEQIQKPQRWNPADLGRFMIFFGPISSIFDILTFCLMWWVFHANTPETQTLFQSGWFVVGLLSQTLIVHMIRTRRVPFIQSCASWPLMIMTVIVMIVGIALPFSPLASYLQLQALPLSYFPWLVAILAGYMTLTQLVKGFYSRRYGWQ [P0ABB8] | 6.31 h | 6.68 ± 0.68 h | 6.44 ± 0.53 h | 5.89 ± 0.47 h | – | 6.91 ± 0.4 h | 14.8 ± 0.69 h | 6.72 ± 0.55 h | 14.4 ± 1.3 h | 6.71 ± 0.3 h | – | –
3 | MFKKSVLFATLLSGVMAFSTNADDKIILKHISVSSVSASPTVLEDTIADIARKYNASSWKVTSMRIDNNSTATAVLYK | – | – | 5.17 ± 1.6 h | 6.02 ± 0.31 h | – | 3.54 ± 0.083 h | 6.51 ± 5.1 h | 3.93 h | 9.35 ± 3.8 h | 5.33 h | 11.5 h | –
4 | MFKNAFANLQKVGKSLMLPVSVLPIAGILLGVGSANFSWLPAVVSHVMAEAGGSVFANMPLIFAIGVALGFTNNDGVSALAAVVAYGIMVKTMAVVAPLVLHLPAEEIASKHLADTGVLGGIISGAIAAYMFNRFYRIKLPEYLGFFAGKRFVPIISGLAAIFTGVVLSFIWPPIGSAIQTFSQWAAYQNPVVAFGIYGFIERCLVPFGLHHIWNVPFQMQIGEYTNAAGQVFHGDIPRYMAGDPTAGKLSGGFLFKMYGLPAAAIAIWHSAKPENRAKVGGIMISAALTSFLTGITEPIEFSFMFVAPILYIIHAILAGLAFPICILLGMRDGTSFSHGLIDFIVLSGNSSKLWLFPIVGIGYAIVYYTIFRVLIKALDLKTPGREDATEDAKATGTSEMAPALVAAFGGKENITNLDACITRLRVSVADVSKVDQAGLKKLGAAGVVVAGSGVQAIFGTKSDNLKTEMDEYIRNH | 6.96 ± 0.44 h | 6.21 ± 0.099 h | 6.68 ± 1.2 h | 6.19 ± 0.17 h | 3.54 ± 0.097 h | 6.88 ± 0.64 h | 13.4 ± 2.5 h | 5.92 ± 0.44 h | 11.8 ± 0.38 h | 5.86 ± 0.2 h | 11.7 ± 1.6 h | 6.75 ± 0.38 h
5 | MFKPHVTVACVVHAEGKFLVVEETINGKALWNQPAGHLEADETLVEAAARELWEETGISAQPQHFIRMHQWIAPDKTPFLRFLFAIELEQICPTQPHDSDIDCCRWVSAEEILQASNLRSPLVAESIRCYQSGQRYPLEMIGDFNWPFTKGVI [P0AEI6] | 4.74 ± 0.38 h | 4.42 ± 0.56 h | 4.45 h | 4.929 ± 0.049 h | – | 5.3 ± 0.12 h | 11.6 ± 1.9 h | 4.54 ± 0.27 h | 6.249 ± 0.042 h | 5.49 ± 0.18 h | 11.12 ± 0.055 h | 4.69 ± 0.34 h
6 | MFLAQEIIRKKRDGHALSDEEIRFFINGIRDNTISEGQIAALAMTIFFHDMTMPERVSLTMAMRDSGTVLDWKSLHLNGPIVDKHSTGGVGDVTSLMLGPMVAACGGYIPMISGRGLGHTGGTLDKLESIPGFDIFPDDNRFREIIKDVGVAIIGQTSSLAPADKRFYATRDITATVDSIPLITASILAKKLAEGLDALVMDVKVGSGAFMPTYELSEALAEAIVGVANGAGVRTTALLTDMNQVLASSAGNAVEVREAVQFLTGEYRNPRLFDVTMALCVEMLISGKLAKDDAEARAKLQAVLDNGKAAEVFGRMVAAQKGPTDFVENYAKYLPTAMLTKAVYADTEGFVSEMDTRALGMAVVAMGGGRRQASDTIDYSVGFTDMARLGDQVDGQRPLAVIHAKDENNWQEAAKAVKAAIKLADKAPESTPTVYRRISE | 5.35 ± 0.43 h | 5.92 ± 0.45 h | 5.18 ± 0.25 h | 5.29 ± 0.068 h | 3.127 ± 0.0038 h | 5.78 ± 0.25 h | – | 5.36 ± 0.13 h | 10.4 ± 1.3 h | 6.07 ± 0.16 h | 13.1 ± 1.6 h | 5.58 ± 0.26 h
7 | MFPEYRDLISRLKNENPRFMSLFDKHNKLDHEIARKEGSDGRGYNAEVVRMKKQKLQLKDEMLKILQQESVKEV [P0ACW6] | – | – | – | – | 1.33 h | 1.87 ± 0.1 h | 1.75 h | – | – | – | – | –
